Columns and labels:
[1] = molecular target: undigested bovine aggrecan, P13608
α-2 macroglobulin = molecular target: T1, α-2 macroglobulin
T1 sequence (P01023 24-1474, species assumed, looked up): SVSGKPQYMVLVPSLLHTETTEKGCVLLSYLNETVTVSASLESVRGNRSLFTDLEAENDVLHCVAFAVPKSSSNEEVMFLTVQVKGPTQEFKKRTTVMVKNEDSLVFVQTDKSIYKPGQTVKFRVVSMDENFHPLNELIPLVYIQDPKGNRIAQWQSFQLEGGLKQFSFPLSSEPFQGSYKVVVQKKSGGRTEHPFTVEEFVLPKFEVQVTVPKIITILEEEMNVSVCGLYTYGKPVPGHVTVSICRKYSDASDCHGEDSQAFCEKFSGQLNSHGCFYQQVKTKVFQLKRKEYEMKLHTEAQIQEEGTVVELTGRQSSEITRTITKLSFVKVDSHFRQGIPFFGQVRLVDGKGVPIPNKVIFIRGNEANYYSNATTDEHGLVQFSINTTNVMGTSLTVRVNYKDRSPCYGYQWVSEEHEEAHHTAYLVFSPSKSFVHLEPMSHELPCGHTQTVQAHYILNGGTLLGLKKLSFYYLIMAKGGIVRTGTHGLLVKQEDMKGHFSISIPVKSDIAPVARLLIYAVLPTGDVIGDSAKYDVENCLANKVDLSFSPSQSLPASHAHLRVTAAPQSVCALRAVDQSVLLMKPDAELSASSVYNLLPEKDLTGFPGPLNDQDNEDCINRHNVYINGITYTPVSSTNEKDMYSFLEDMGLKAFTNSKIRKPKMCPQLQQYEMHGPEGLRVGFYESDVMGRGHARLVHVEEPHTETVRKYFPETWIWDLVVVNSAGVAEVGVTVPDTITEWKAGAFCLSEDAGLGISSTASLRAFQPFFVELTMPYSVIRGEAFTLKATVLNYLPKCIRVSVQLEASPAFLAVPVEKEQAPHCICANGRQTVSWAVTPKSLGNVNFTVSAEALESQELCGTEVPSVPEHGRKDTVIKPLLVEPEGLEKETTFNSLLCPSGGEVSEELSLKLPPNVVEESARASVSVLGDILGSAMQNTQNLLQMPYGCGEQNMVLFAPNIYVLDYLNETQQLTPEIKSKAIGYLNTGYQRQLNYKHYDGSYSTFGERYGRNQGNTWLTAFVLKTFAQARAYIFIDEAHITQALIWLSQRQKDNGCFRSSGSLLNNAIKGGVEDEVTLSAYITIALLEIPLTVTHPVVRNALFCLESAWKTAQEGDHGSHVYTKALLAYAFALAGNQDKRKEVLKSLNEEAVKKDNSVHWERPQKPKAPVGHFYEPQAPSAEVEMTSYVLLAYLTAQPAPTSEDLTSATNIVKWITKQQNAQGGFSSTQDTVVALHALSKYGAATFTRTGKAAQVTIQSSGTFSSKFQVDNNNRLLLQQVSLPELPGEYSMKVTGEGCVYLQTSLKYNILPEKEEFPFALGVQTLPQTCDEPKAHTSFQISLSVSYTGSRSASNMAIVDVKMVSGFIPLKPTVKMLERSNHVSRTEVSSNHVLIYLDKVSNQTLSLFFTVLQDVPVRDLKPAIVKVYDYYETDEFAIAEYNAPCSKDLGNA

undigested bovine aggrecan, P13608, sequence (P13608 20-2364): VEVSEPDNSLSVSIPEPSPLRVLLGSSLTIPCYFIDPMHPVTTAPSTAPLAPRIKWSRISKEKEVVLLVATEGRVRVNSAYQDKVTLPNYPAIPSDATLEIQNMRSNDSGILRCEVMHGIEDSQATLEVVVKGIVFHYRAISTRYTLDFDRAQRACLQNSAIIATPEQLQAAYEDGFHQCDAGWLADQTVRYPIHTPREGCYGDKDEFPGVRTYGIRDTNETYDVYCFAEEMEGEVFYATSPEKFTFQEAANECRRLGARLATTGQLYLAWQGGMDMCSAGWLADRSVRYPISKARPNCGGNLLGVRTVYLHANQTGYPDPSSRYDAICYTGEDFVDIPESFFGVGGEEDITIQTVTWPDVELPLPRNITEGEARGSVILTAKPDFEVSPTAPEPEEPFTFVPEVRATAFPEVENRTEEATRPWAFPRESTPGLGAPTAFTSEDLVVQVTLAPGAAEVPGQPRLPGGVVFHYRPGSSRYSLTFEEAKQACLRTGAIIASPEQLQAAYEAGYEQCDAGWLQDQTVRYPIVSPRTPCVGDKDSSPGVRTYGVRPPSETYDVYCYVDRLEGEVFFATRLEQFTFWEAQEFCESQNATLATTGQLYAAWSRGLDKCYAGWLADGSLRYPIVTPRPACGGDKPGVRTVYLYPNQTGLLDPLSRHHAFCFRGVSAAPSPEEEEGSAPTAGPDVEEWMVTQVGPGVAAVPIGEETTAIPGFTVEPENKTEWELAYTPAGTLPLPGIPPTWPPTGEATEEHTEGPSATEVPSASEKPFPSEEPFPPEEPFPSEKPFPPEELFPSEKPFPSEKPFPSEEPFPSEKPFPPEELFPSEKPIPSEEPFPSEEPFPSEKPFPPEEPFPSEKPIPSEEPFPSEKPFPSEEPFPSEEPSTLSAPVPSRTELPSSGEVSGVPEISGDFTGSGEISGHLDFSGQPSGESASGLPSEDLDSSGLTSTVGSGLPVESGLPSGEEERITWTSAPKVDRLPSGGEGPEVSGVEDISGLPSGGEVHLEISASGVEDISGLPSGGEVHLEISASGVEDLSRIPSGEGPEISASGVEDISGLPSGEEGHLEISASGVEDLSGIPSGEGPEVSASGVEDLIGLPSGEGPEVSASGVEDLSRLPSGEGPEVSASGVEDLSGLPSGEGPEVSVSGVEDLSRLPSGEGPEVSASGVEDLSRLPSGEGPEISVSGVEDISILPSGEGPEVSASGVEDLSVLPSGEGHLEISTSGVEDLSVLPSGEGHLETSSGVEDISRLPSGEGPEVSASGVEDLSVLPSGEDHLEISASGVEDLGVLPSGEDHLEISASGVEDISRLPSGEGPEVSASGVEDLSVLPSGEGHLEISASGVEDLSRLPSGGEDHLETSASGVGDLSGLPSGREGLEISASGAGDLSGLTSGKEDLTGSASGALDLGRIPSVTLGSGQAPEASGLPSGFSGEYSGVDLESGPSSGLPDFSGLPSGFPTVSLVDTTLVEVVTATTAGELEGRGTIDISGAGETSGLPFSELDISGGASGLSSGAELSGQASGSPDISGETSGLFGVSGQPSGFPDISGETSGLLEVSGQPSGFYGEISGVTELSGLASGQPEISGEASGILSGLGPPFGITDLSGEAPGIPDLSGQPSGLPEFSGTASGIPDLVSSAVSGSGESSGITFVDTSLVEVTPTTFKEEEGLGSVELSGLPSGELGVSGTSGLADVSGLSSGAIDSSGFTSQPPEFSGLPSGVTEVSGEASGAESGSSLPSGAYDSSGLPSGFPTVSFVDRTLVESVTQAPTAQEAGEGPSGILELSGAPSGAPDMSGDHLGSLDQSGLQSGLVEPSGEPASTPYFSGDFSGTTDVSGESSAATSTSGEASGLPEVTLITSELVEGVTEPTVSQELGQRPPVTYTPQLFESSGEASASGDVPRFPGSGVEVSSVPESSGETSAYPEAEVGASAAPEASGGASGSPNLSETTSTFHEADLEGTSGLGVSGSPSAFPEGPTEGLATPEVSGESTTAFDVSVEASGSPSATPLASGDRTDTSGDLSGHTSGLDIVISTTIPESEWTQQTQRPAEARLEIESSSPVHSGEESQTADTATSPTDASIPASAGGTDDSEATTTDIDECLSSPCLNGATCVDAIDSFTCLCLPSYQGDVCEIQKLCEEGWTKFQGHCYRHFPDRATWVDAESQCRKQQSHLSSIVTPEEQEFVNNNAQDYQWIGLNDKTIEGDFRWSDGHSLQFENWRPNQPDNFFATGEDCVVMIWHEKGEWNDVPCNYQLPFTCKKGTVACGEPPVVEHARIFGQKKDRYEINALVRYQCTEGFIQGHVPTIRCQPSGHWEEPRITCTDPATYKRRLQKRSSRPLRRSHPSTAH

| Protein | aggrecan cleavage by AGG-C1 Western blotting [1] | α2-macroglobulin assay (α-2 macroglobulin) | aggrecan cleavage seen by neoepitope Western blot [1] | lowest enzyme:substrate ratio at which cleavage is detected by Western blot [1] |
| --- | --- | --- | --- | --- |
| recombinant C-terminally truncated ADAMTS-8 (protein) MLPAPAAPRWPPLLLLLLLLLLPLARGAPARPAAGGQASELVVPTRLPGSAGELALHLSAFGKGFVLRLAPDDSFLAPEFKIERLGGSGRATGGERGLRGCFFSGTVNGEPESLAAVSLCRGLSGSFLLDGEEFTIQPQGAGGSLAQPHRLQRWGPAGARPLPRGPEWEVETGEGQRQERGDHQEDSEEESQEEEAEGASEPPPPLGATSRTKRFVSEARFVETLLVADASMAAFYGADLQNHILTLMSVAARIYKHPSIKNSINLMVVKVLIVEDEKWGPEVSDNGGLTLRNFCNWQRRFNQPSDRHPEHYDTAILLTRQNFCGQEGLCDTLGVADIGTICDPNKSCSVIEDEGLQAAHTLAHELGHVLSMPHDDSKPCTRLFGPMGKHHVMAPLFVHLNQTLPWSPCSAMYLTELLDGGHGDCLLDAPRAALPLPTGLPGRMALYQLDQQCRQIFGPDFRHCPNTSAQDVCAQLWCHTDGAEPLCHTKNGSLPWADGTPCGPGHLCSEGSCLPEEEVERPKPVADGGWAPWGPWGECSRTCGGGVQFSHRECKDPEPQNGGRYCLGRRAKYQSCHTEECPPDGKSFREQQCEKYNAYNYTDMDGNLLQWVPKYAGVSPRDRCKLFCRARGRSEFKVFEAKVIDGTLCGPETLAICVRGQCVKAGCDHVVDSPRKLDKCGVCGGKGNSCRKVSGSLTPTNYGYNDIVTIPAGATNIDVKQRSHPGVQNDGNYLALKTADGQYLLNGNLAISAIEQDILVKGTILKYSGSIATLERLQSFRPLPEPLTVQLLTVPGEVFPPKVKYTFFVPNDVDFSMQSSKERATTNIIQPLLHAQWVLGDWSECSSTCGAGWQRRTVECRDPSGQASATCNKALKPEDAKPCESQLCPL | it seemed to be no more active than full-length recombinant ADAMTS-8 on aggrecan substrate as judged by AGG-C1 Western blotting | the purified protein was active as judged by α2-macroglobulin assay | – | – |
| recombinant human ADAMTS-8 with C-terminal Strep-tag (protein) RFVSEARFVETLLVADASMAAFYGADLQNHILTLMSVAARIYKHPSIKNSINLMVVKVLIVEDEKWGPEVSDNGGLTLRNFCNWQRRFNQPSDRHPEHYDTAILLTRQNFCGQEGLCDTLGVADIGTICDPNKSCSVIEDEGLQAAHTLAHELGHVLSMPHDDSKPCTRLFGPMGKHHVMAPLFVHLNQTLPWSPCSAMYLTELLDGGHGDCLLDAPRAALPLPTGLPGRMALYQLDQQCRQIFGPDFRHCPNTSAQDVCAQLWCHTDGAEPLCHTKNGSLPWADGTPCGPGHLCSEGSCLPEEEVERPKPVADGGWAPWGPWGECSRTCGGGVQFSHRECKDPEPQNGGRYCLGRRAKYQSCHTEECPPDGKSFREQQCEKYNAYNYTDMDGNLLQWVPKYAGVSPRDRCKLFCRARGRSEFKVFEAKVIDGTLCGPETLAICVRGQCVKAGCDHVVDSPRKLDKCGVCGGKGNSCRKVSGSLTPTNYGYNDIVTIPAGATNIDVKQRSHPGVQNDGNYLALKTADGQYLLNGNLAISAIEQDILVKGTILKYSGSIATLERLQSFRPLPEPLTVQLLTVPGEVFPPKVKYTFFVPNDVDFSMQSSKERATTNIIQPLLHAQWVLGDWSECSSTCGAGWQRRTVECRDPSGQASATCNKALKPEDAKPCESQLCPLGSGSAWSHPQFEK | – | – | MAb BC-3 immunoreactive bands increased in intensity with increasing amounts of ADAMTS-8 protein relative to aggrecan substrate | cleavage of bovine articular cartilage aggrecan by ADAMTS-8 at an enzyme:substrate ratio of 1:0.5 using the BC-3 neoepitope MAb ... can be readily detected |
